Assay results taken from paper PMC10786891, “Massively parallel profiling of RNA-targeting CRISPR-Cas13d”.
Positions count from the first letter of the chain named. Numbers in names are those of the source.

T1: EsCas13d, nuclease-dead (Eubacterium siraeum, UniProt B0MS50, R295A;H300A;R849A;H854A)
T1 sequence: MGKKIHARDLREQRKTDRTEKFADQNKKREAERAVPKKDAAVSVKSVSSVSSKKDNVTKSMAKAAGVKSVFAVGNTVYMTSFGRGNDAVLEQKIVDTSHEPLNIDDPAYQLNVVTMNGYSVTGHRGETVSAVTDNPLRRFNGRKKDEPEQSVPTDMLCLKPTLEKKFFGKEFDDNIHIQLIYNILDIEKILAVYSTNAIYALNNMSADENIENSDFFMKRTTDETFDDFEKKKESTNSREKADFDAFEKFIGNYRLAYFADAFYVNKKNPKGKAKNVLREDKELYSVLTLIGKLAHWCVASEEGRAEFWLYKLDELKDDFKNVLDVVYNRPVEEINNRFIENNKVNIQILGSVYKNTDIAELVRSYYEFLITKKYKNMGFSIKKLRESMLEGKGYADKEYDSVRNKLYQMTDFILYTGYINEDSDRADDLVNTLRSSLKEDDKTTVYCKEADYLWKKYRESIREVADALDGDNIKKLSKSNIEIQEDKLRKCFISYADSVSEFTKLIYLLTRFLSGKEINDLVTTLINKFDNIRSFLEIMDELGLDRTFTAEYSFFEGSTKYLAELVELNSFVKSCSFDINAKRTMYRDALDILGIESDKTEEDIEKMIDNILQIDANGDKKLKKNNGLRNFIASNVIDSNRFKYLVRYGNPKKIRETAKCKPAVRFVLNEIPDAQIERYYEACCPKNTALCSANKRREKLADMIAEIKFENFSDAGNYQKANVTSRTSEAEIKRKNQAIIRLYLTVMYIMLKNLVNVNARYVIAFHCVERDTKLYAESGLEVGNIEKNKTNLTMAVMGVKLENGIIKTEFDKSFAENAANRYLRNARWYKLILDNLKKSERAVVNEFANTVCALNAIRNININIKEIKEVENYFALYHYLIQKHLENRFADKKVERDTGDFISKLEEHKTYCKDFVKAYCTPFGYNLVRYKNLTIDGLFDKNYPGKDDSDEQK

B1: target 1 insG 3' of 20,insA 3' of 10 (mixed)
RNA 1: CACCCGUGCAAAAAUGCAGGGGUCUAAAACUGAGCGGAUAACCUCUCUAUGG
RNA 2: GGGAAUGGAUCCACAUCUACGAAUUCGUACCAGUAGAGAGGUUAAUCCGCUCACCGAGAUCGGAAGAGCACACGU
B2: target 1 MT 5'PFS CAU 3'PFS CUA (mixed)
RNA 1: B1 RNA 1
RNA 2: GGGAAUGGAUCCACAUCUACGAAUUCCAUCCAUAGAGAGGUUAUCCGCUCACUAAGAUCGGAAGAGCACACGU
B3: target 1 MT 5'PFS GAC 3'PFS UAG (mixed)
RNA 1: B1 RNA 1
RNA 2: B2 RNA 2 with C27G, U29C, C52U, U53A, A54G
B4: target 1 MT 5'PFS GUA 3'PFS UUG (mixed)
RNA 1: B1 RNA 1
RNA 2: B2 RNA 2 with C27G, A28U, U29A, C52U, A54G
B5: target 1 MT 5'PFS UUA 3'PFS UAA (mixed)
RNA 1: B1 RNA 1
RNA 2: B2 RNA 2 with C27U, A28U, U29A, C52U, U53A
B6: target 1 MT 5'PFS GGU 3'PFS CCU (mixed)
RNA 1: B1 RNA 1
RNA 2: B2 RNA 2 with C27G, A28G, U53C, A54U
B7: target 1 MT 5'PFS UUA 3'PFS UAG (mixed)
RNA 1: B1 RNA 1
RNA 2: B2 RNA 2 with C27U, A28U, U29A, C52U, U53A, A54G
B8: target 1 MT 5'PFS CAU 3'PFS CUC (mixed)
RNA 1: B1 RNA 1
RNA 2: B2 RNA 2 with A54C
B9: target 1 MT 5'PFS CCG 3'PFS UCC (mixed)
RNA 1: B1 RNA 1
RNA 2: B2 RNA 2 with A28C, U29G, C52U, U53C, A54C
B10: target 1 MT 5'PFS UUG 3'PFS CUA (mixed)
RNA 1: B1 RNA 1
RNA 2: B2 RNA 2 with C27U, A28U, U29G
B11: target 1 MT 5'PFS GUA 3'PFS UUU (mixed)
RNA 1: B1 RNA 1
RNA 2: B2 RNA 2 with C27G, A28U, U29A, C52U, A54U
B12: target 1 MT 5'PFS GUU 3'PFS ACU (mixed)
RNA 1: B1 RNA 1
RNA 2: B2 RNA 2 with C27G, A28U, C52A, U53C, A54U
B13: target 1 MT 5'PFS UUA 3'PFS UAC (mixed)
RNA 1: B1 RNA 1
RNA 2: B2 RNA 2 with C27U, A28U, U29A, C52U, U53A, A54C
B14: target 1 MT 5'PFS CCA 3'PFS CGG (mixed)
RNA 1: B1 RNA 1
RNA 2: B2 RNA 2 with A28C, U29A, U53G, A54G
B15: target 1 MT 5'PFS GUA 3'PFS UUA (mixed)
RNA 1: B1 RNA 1
RNA 2: B2 RNA 2 with C27G, A28U, U29A, C52U
B16: target 1 MT 5'PFS GUU 3'PFS CGU (mixed)
RNA 1: B1 RNA 1
RNA 2: B2 RNA 2 with C27G, A28U, U53G, A54U
B17: target 1 MT 5'PFS GUC 3'PFS AGG (mixed)
RNA 1: B1 RNA 1
RNA 2: B2 RNA 2 with C27G, A28U, U29C, C52A, U53G, A54G
B18: target 1 MT 5'PFS GAC 3'PFS UAU (mixed)
RNA 1: B1 RNA 1
RNA 2: B2 RNA 2 with C27G, U29C, C52U, U53A, A54U
B19: target 1 MT 5'PFS GCG 3'PFS CCU (mixed)
RNA 1: B1 RNA 1
RNA 2: B2 RNA 2 with C27G, A28C, U29G, U53C, A54U
B20: target 1 MT 5'PFS GUU 3'PFS CGG (mixed)
RNA 1: B1 RNA 1
RNA 2: B2 RNA 2 with C27G, A28U, U53G, A54G
B21: target 1 MT 5'PFS GUC 3'PFS AGC (mixed)
RNA 1: B1 RNA 1
RNA 2: B2 RNA 2 with C27G, A28U, U29C, C52A, U53G, A54C
B22: target 1 MT 5'PFS UUA 3'PFS CUC (mixed)
RNA 1: B1 RNA 1
RNA 2: B2 RNA 2 with C27U, A28U, U29A, A54C
B23: target 1 MT 5'PFS UUG 3'PFS CUG (mixed)
RNA 1: B1 RNA 1
RNA 2: B2 RNA 2 with C27U, A28U, U29G, A54G
B24: target 1 MT 5'PFS GUA 3'PFS UUC (mixed)
RNA 1: B1 RNA 1
RNA 2: B2 RNA 2 with C27G, A28U, U29A, C52U, A54C
B25: target 1 MT 5'PFS GAC 3'PFS UAC (mixed)
RNA 1: B1 RNA 1
RNA 2: B2 RNA 2 with C27G, U29C, C52U, U53A, A54C
B26: target 1 MT 5'PFS GUC 3'PFS AGA (mixed)
RNA 1: B1 RNA 1
RNA 2: B2 RNA 2 with C27G, A28U, U29C, C52A, U53G
B27: target 1 insA 3' of 8,insA 3' of 6 (mixed)
RNA 1: B1 RNA 1
RNA 2: GGGAAUGGAUCCACAUCUACGAAUUCGUACCAUAGAGAGGUUAUACCAGCUCACCGAGAUCGGAAGAGCACACGU
B28: target 1 MT 5'PFS CCG 3'PFS UCG (mixed)
RNA 1: B1 RNA 1
RNA 2: B2 RNA 2 with A28C, U29G, C52U, U53C, A54G
B29: target 1 MT 5'PFS UUA 3'PFS CUA (mixed)
RNA 1: B1 RNA 1
RNA 2: B2 RNA 2 with C27U, A28U, U29A
B30: target 1 MT 5'PFS GAC 3'PFS UAA (mixed)
RNA 1: B1 RNA 1
RNA 2: B2 RNA 2 with C27G, U29C, C52U, U53A
B31: target 1 MT 5'PFS UUA 3'PFS CUG (mixed)
RNA 1: B1 RNA 1
RNA 2: B2 RNA 2 with C27U, A28U, U29A, A54G
B32: target 1 MT 5'PFS AUA 3'PFS ACU (mixed)
RNA 1: B1 RNA 1
RNA 2: B2 RNA 2 with C27A, A28U, U29A, C52A, U53C, A54U
B33: target 1 MT 5'PFS GGG 3'PFS ACU (mixed)
RNA 1: B1 RNA 1
RNA 2: B2 RNA 2 with C27G, A28G, U29G, C52A, U53C, A54U
B34: target 1 MT 5'PFS UAG 3'PFS GAG (mixed)
RNA 1: B1 RNA 1
RNA 2: B2 RNA 2 with C27U, U29G, C52G, U53A, A54G
B35: target 1 MT 5'PFS GUC 3'PFS AGU (mixed)
RNA 1: B1 RNA 1
RNA 2: B2 RNA 2 with C27G, A28U, U29C, C52A, U53G, A54U
B36: target 1 MT 5'PFS GCG 3'PFS AAU (mixed)
RNA 1: B1 RNA 1
RNA 2: B2 RNA 2 with C27G, A28C, U29G, C52A, U53A, A54U
B37: target 1 G5U,G13C (mixed)
RNA 1: B1 RNA 1
RNA 2: B2 RNA 2 with C27G, A28U, U29A, G39C, G47U, U53C, A54G
B38: target 1 C7A,U11G (mixed)
RNA 1: B1 RNA 1
RNA 2: B2 RNA 2 with C27G, A28U, U29A, U41G, C45A, U53C, A54G
B39: target 1 MT 5'PFS GCG 3'PFS CCG (mixed)
RNA 1: B1 RNA 1
RNA 2: B2 RNA 2 with C27G, A28C, U29G, U53C, A54G
B40: target 1 MT 5'PFS GGC 3'PFS CCU (mixed)
RNA 1: B1 RNA 1
RNA 2: B2 RNA 2 with C27G, A28G, U29C, U53C, A54U

biological target: T1, EsCas13d, nuclease-dead; assay: crRNA (strand 1, pre-loaded); Mg2+; 40 mM Tris-HCl pH 7.5, 150 mM NaCl, 6 mM MgCl2, 1 mM DTT, 0.1% Tween-20, 0.2 mg/ml BSA; 25 C; 10 min per concentration, then washed; details: tags: His6-TwinStrep-SUMO cleaved; N-terminal SNAP kept (SNAP-Surface 488); label: 3' end held by stalled T7 RNA polymerase

Going from B1 to B2, the Kd rises from 42 ± 8 nM to roughly 110 nM (2.6-fold). The first binds more tightly here.

Compared with B3, B4 is 3.4-fold lower in Kd: 27.5 ± 11 nM for the first, 8.11 ± 0.52 nM for the second.

Compared with B5, B6 is 3.5-fold higher in Kd: 21.5 ± 7 nM for the first, 75.5 ± 30.5 nM for the second.

First: B7
Second: B8
The Kd of the first is 3.3-fold lower: 27.5 ± 6 nM for the first, roughly 90 nM for the second. The first binds more tightly here.

First: B9
Second: B10
The Kd of the first is 8.1-fold lower: 5.6 ± 2.35 nM for the first, 45.5 ± 18 nM for the second. The first binds more tightly here.

Compared with B11, B12 is 1.9-fold higher in Kd: 8.21 ± 0.5 nM for the first, 15.8 ± 1.8 nM for the second.

Going from B13 to B14, the Kd falls from 35 ± 7 nM to 5.05 ± 1.35 nM (6.9-fold). The second binds more tightly here.

B15 and B16 are within error of each other in Kd: 9.85 ± 1.15 nM for the first, 12.3 ± 1.8 nM for the second.

Compared with B17, B18 is 2.4-fold lower in Kd: 46 ± 9 nM for the first, 19 ± 6 nM for the second.

First: B19
Second: B20
The Kd of the first is 3.6-fold lower: 18.5 ± 6.5 nM for the first, 67 ± 9 nM for the second.

Going from B21 to B22, the Kd rises from 9.1 ± 1.75 nM to 16 ± 4 nM (1.8-fold). The first binds more tightly here.

Compared with B23, B24 is 2.5-fold lower in Kd: 23.5 ± 5.75 nM for the first, 9.25 ± 1.1 nM for the second.

B25 and B26 are within error of each other in Kd: 19 ± 8 nM for the first, 19.5 ± 3.85 nM for the second.

Going from B27 to B28, the Kd falls from 13.8 ± 0.7 nM to 3.4 ± 1.3 nM (4.1-fold).

First: B29
Second: B30
The Kd of the first is 2.7-fold higher: roughly 47 nM for the first, 17.5 ± 4.5 nM for the second. The second binds more tightly here.

B31 and B32 are within error of each other in Kd: 14.9 ± 2.6 nM for the first, 15.5 ± 4 nM for the second.

Going from B33 to B34, the Kd rises from 14.2 ± 1.3 nM to 91 ± 37 nM (6.4-fold). The first binds more tightly here.

Compared with B35, B36 is 1.6-fold higher in Kd: 20.6 ± 2.7 nM for the first, 33.5 ± 9.5 nM for the second. The first binds more tightly here.

Going from B37 to B38, the Kd falls from 39 ± 6 nM to 13.4 ± 0.6 nM (2.9-fold). The second binds more tightly here.

B39 and B40 are within error of each other in Kd: 12.4 ± 3.4 nM for the first, 15.9 ± 4.7 nM for the second.
